Source: patent US20230028110A1 (ADAPTATE BIOTHERAPEUTICS, published 2023)

Key:
[1] = biological target: T1, Cyno DV1/GV77 antigen, recombinant cynomolgus Vδ1 heterodimer (cynomolgus monkey); assay: SPR, captured IgG, cyno DV1-GV77 flown over
T1 construct: also called cyno TRDV1; Cyno DV1-77; not shown: delta CDR3/J, TCR constant region, zipper and tag; the whole gamma chain GV77

[2] = biological target: T2, L1 (DV1-GV4), soluble human Vδ1/Vγ4 γδ TCR heterodimer in leucine zipper format (human); assay: SPR, captured IgG, human DV1-GV4 flown over
T2 construct: Biotinylated in the DELFIA ranking; also called Antigen L1 (TRDV1/TRGV4); human DV1-GV4; not shown: gamma chain: Vγ4 (TRGV4) domain on a TCR constant region, leucine zipper, histidine tag

[3] = biological target: T1, Cyno DV1/GV77 antigen, recombinant …; assay: DELFIA ELISA, cyno antigen; heat map cell of the clone
[4] = biological target: T2, L1 (DV1-GV4), soluble human Vδ1/Vγ4 γδ …; assay: DELFIA ELISA, 0.4 nM human TRDV1 antigen; heat map cell of the clone

T1 sequence (delta, as listed by the source limits assumed): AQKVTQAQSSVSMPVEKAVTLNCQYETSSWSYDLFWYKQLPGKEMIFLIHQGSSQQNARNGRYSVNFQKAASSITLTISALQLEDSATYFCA
T2 sequence (main, as listed by the source): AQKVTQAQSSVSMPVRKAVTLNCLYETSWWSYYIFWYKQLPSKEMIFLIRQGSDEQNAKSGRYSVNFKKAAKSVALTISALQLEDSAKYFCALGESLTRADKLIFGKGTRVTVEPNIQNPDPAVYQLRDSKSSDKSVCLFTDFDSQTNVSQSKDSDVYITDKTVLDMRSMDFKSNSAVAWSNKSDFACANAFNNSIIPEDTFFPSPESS

- Kd [1]: 15.1 nM
- Kd [2]: 0.541 nM
- ELISA signal (heat map) [3]: 139000
- ELISA signal (heat map) [4]: 42700
B1: ADT1-4-8 (antibody, V domains shown)
VH: EVQLQQSGPGLVKPSQTLSLTCAISGDSVSSKSAAWNWIRQSPSRGLEWLGRTYYRSKWSTDYAASVKSRITINPDTSKNQLSLQLNSVTPEDTAVYYCARTWVGYADVWGQGTLVTVSS
VL: DIQMTQSPPALSASVGDRVTITCRASQDINDWLAWYQHKPGKAPKLLIYDASSLESGVPLRFSGSGSGTEFTLTISSLQPDDFATYYCQQKYSAPQVTFGQGTRLEIK
